Article PMC12781872, “Differential association of primary and alternative σ factors with RNA polymerase of Mycobacterium tuberculosis during transcription elongation” (Nucleic Acids Research, 2026)

Molecular target: T1, Mycobacterium tuberculosis RNA polymerase core (α2ββ'ω), wildtype (Mycobacterium tuberculosis, UniProt P9WGZ1;P9WGY9;P9WGY7;P9WGY5)
T1 construct: also called Mtb RNAP core; unlabelled RNAP core; copies: 2 + + +
Experiment: native gel or EMSA
Details: both partners purified

T1 sequence (P9WGZ1 whole entry, chain 1 of 4): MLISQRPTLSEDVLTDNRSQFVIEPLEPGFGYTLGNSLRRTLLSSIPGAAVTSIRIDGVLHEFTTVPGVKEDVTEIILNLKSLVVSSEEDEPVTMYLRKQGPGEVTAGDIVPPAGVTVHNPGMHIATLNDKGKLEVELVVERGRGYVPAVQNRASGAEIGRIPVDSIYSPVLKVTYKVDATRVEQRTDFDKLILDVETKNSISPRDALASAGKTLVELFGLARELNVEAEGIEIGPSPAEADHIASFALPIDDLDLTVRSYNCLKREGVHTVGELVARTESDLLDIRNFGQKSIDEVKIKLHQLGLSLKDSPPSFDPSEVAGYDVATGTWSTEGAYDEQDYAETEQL
T1 sequence (P9WGY9 whole entry, chain 2 of 4): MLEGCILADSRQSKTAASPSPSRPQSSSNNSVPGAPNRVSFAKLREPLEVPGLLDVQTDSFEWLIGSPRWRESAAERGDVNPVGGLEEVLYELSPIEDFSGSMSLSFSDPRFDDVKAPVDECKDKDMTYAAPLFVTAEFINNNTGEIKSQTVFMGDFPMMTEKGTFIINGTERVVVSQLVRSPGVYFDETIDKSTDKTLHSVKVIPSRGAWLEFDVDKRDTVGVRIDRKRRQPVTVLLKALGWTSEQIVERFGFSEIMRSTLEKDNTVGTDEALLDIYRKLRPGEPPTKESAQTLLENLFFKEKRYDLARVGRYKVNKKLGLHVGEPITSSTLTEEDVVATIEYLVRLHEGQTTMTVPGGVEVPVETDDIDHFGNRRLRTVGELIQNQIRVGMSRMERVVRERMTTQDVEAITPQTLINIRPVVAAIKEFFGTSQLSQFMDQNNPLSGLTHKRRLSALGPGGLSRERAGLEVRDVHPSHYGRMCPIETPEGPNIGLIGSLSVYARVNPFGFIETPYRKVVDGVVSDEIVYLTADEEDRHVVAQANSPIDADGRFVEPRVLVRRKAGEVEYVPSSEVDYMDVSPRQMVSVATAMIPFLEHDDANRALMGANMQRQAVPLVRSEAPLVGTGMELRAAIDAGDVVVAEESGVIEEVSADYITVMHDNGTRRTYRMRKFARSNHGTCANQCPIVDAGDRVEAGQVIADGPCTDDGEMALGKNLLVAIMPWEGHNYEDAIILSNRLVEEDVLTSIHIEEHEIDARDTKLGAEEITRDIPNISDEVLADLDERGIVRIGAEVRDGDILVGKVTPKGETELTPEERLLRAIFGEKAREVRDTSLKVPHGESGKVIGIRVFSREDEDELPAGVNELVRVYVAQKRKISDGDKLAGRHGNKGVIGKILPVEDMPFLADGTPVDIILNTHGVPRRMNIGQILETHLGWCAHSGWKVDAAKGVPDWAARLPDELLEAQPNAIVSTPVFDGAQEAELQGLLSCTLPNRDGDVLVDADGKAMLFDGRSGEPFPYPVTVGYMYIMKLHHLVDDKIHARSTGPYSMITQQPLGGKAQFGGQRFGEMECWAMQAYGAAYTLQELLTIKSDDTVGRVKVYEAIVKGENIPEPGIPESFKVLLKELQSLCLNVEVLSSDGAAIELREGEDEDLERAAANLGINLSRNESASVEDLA
T1 sequence (P9WGY7 whole entry, chain 3 of 4): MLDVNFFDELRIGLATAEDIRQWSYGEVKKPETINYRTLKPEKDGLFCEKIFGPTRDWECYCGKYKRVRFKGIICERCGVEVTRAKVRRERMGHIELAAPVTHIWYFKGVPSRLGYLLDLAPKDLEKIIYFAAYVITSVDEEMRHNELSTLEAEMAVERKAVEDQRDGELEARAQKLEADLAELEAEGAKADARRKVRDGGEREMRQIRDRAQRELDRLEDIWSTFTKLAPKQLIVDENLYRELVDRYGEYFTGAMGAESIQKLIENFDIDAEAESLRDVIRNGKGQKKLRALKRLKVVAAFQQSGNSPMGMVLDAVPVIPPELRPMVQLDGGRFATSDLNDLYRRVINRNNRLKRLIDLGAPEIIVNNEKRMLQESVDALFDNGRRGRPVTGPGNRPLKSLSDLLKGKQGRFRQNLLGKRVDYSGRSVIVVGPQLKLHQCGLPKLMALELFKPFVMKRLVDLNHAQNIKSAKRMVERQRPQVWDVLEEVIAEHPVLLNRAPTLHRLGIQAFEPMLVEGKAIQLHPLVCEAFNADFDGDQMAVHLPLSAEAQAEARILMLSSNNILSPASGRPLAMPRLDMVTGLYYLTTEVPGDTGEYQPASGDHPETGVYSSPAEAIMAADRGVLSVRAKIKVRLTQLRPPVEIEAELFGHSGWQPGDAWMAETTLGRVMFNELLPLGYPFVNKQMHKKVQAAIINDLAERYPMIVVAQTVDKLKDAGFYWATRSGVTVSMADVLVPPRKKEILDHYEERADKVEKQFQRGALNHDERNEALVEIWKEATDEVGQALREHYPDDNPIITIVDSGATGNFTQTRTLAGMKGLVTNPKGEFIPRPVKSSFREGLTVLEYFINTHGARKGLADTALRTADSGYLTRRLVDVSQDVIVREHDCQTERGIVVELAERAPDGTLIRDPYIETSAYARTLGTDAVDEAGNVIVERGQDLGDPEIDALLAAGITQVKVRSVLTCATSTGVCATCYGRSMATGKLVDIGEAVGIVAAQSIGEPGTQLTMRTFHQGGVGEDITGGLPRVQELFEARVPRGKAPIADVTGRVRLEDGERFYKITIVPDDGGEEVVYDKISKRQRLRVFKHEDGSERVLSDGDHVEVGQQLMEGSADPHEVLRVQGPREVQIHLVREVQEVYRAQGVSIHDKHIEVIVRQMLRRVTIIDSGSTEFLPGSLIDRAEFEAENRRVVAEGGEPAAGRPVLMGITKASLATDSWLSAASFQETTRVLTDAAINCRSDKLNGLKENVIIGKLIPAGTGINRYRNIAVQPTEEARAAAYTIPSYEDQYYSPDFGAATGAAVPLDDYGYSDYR
T1 sequence (P9WGY5 whole entry, chain 4 of 4): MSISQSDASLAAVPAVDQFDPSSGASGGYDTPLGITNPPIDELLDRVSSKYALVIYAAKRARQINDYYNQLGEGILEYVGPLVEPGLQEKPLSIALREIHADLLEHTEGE

B1: TMR-labelled Mtb σ^F (wild type, labelled at the natural cysteine, residue 47 of σ2) (natural protein)
chain: MTARAAGGSASRANEYADVPEMFRELVGLPAGSPEFQRHRDKIVQRCLPLADHIARRFEGRGEPRDDLIQVARVGLVNAAVRFDVKTGSDFVSFAVPTIMGEVRRHFRDNSWSVKVPRRLKELHLRLGTATADLSQRLGRAPSASELAAELGMDRAEVIEGLLAGSSYHTLSIDSGGGSDDDARAITDTLGDVDAGLDQIENREVLRPLLEALPERERTVLVLRFFDSMTQTQIAERVGISQMHVSRLLAKSLARLRDQLE
notes: also called TMR-labelled σ^F; σ^F labelled with TMR at region 2
fractional occupancy relative to RPo, at RPitc (usfXP1): ~96%
fractional occupancy relative to RPo, at TEC+17 (usfXP1): 89%
fractional occupancy relative to RPo, at TEC+23 (usfXP1): 87%
fractional occupancy relative to RPo, at TEC+28 (usfXP1): 83%
fractional occupancy relative to RPo, at TEC+64 (usfXP1): 82%

B2: TMR-labelled Mtb σ^E used in EMSA and anisotropy assays (natural protein)
chain: MELLGGPRVGNTESQLCVADGDDLPTYCSANSEDLNITTITTLSPTSMSHPQQVRDDQWVEPSDQLQGTAVFDATGDKATMPSWDELVRQHADRVYRLAYRLSGNQHDAEDLTQETFIRVFRSVQNYQPGTFEGWLHRITTNLFLDMVRRRARIRMEALPEDYDRVPADEPNPEQIYHDARLGPDLQAALASLPPEFRAAVVLCDIEGLSYEEIGATLGVKLGTVRSRIHRGRQALRDYLAAHPEHGECAVHVNPVR
notes: also called TMR-labelled σ^E; labelled σ^E
fractional occupancy relative to RPo, at RPitc (sigB): ~93%
fractional occupancy relative to RPo, at TEC+15 (sigB): 55%
fractional occupancy relative to RPo, at TEC+23 (sigB): 47%
fractional occupancy relative to RPo, at TEC+27 (sigB): 45%
fractional occupancy relative to RPo, at TEC+84 (sigB): 38%

B3: Alexafluor-488 labelled Mtb σ^A (natural protein)
chain: MAATKASTATDEPVKRTATKSPAASASGAKTGAKRTAAKSASGSPPAKRATKPAARSVKPASAPQDTTTSTIPKRKTRAAAKSAAAKAPSARGHATKPRAPKDAQHEAATDPEDALDSVEELDAEPDLDVEPGEDLDLDAADLNLDDLEDDVAPDADDDLDSGDDEDHEDLEAEAAVAPGQTADDDEEIAEPTEKDKASGDFVWDEDESEALRQARKDAELTASADSVRAYLKQIGKVALLNAEEEVELAKRIEAGLYATQLMTELSERGEKLPAAQRRDMMWICRDGDRAKNHLLEANLRLVVSLAKRYTGRGMAFLDLIQEGNLGLIRAVEKFDYTKGYKFSTYATWWIRQAITRAMADQARTIRIPVHMVEVINKLGRIQRELLQDLGREPTPEELAKEMDITPEKVLEIQQYAREPISLDQTIGDEGDSQLGDFIEDSEAVVAVDAVSFTLLQDQLQSVLDTLSEREAGVVRLRFGLTDGQPRTLDEIGQVYGVTRERIRQIESKTMSKLRHPSRSQVLRDYLD
notes: also called AF488 labelled σ^A; σ^A-488
fractional occupancy relative to RPo, at RPitc (sinP3): ~95%
fractional occupancy relative to RPo, at TEC+16 (sinP3): 77%
fractional occupancy relative to RPo, at TEC+23 (sinP3): 72%
fractional occupancy relative to RPo, at TEC+29 (sinP3): 63%
fractional occupancy relative to RPo, at TEC+59 (sinP3): 49%
